Numbering of substitutions follows the chain as printed. Names may count otherwise.
T1: EsCas13d, nuclease-dead (Eubacterium siraeum, UniProt B0MS50, R295A;H300A;R849A;H854A)
T1 sequence: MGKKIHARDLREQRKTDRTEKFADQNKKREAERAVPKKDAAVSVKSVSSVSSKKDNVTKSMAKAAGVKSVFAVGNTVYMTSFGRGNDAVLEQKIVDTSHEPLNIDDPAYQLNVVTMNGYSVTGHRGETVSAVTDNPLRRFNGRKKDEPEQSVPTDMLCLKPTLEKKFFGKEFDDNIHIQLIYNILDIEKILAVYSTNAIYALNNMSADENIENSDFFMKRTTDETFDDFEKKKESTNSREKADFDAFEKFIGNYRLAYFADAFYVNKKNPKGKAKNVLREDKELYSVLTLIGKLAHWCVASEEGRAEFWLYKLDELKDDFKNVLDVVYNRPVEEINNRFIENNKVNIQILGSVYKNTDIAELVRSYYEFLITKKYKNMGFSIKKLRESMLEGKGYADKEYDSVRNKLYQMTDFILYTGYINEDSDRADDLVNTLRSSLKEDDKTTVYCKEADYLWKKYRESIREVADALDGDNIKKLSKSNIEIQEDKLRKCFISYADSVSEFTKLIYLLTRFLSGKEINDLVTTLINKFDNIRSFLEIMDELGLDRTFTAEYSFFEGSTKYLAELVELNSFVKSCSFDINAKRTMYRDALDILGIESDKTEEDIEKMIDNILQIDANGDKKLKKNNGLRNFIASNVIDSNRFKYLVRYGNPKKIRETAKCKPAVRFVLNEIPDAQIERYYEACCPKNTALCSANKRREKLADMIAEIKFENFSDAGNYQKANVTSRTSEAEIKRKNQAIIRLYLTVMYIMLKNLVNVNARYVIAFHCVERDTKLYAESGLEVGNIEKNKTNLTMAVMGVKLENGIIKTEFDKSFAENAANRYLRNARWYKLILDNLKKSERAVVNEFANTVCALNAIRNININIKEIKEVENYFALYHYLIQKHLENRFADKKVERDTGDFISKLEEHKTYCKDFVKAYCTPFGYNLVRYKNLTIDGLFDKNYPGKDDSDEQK

B1: target 1 MT 5'PFS CCU 3'PFS AAC (mixed)
RNA 1: CACCCGUGCAAAAAUGCAGGGGUCUAAAACUGAGCGGAUAACCUCUCUAUGG
RNA 2: GGGAAUGGAUCCACAUCUACGAAUUCCCUCCAUAGAGAGGUUAUCCGCUCAAACAGAUCGGAAGAGCACACGU
B2: target 1 MT 5'PFS ACU 3'PFS AUC (mixed)
RNA 1: B1 RNA 1
RNA 2: B1 RNA 2 with C27A, A53U
B3: target 1 MT 5'PFS UAG 3'PFS CGA (mixed)
RNA 1: B1 RNA 1
RNA 2: B1 RNA 2 with C27U, C28A, U29G, A52C, A53G, C54A
B4: target 1 MT 5'PFS GGC 3'PFS UUC (mixed)
RNA 1: B1 RNA 1
RNA 2: B1 RNA 2 with C27G, C28G, U29C, A52U, A53U
B5: target 1 C4A,C7A (mixed)
RNA 1: B1 RNA 1
RNA 2: B1 RNA 2 with C27G, C28U, U29A, C45A, C48A, A52C, A53C, C54G
B6: target 1 C21U,C22A (mixed)
RNA 1: B1 RNA 1
RNA 2: B1 RNA 2 with C27G, C28U, U29A, C30A, C31U, A52C, A53C, C54G
B7: target 1 MT 5'PFS AAG 3'PFS AGG (mixed)
RNA 1: B1 RNA 1
RNA 2: B1 RNA 2 with C27A, C28A, U29G, A53G, C54G
B8: target 1 MT 5'PFS AAG 3'PFS AGA (mixed)
RNA 1: B1 RNA 1
RNA 2: B1 RNA 2 with C27A, C28A, U29G, A53G, C54A
B9: target 1 MT 5'PFS UCG 3'PFS UGU (mixed)
RNA 1: B1 RNA 1
RNA 2: B1 RNA 2 with C27U, U29G, A52U, A53G, C54U
B10: target 1 MT 5'PFS UAG 3'PFS CGU (mixed)
RNA 1: B1 RNA 1
RNA 2: B1 RNA 2 with C27U, C28A, U29G, A52C, A53G, C54U
B11: target 1 MT 5'PFS GAA 3'PFS AAC (mixed)
RNA 1: B1 RNA 1
RNA 2: B1 RNA 2 with C27G, C28A, U29A
B12: target 1 MT 5'PFS AAU 3'PFS AAU (mixed)
RNA 1: B1 RNA 1
RNA 2: B1 RNA 2 with C27A, C28A, C54U
B13: target 1 MT 5'PFS UCA 3'PFS UUG (mixed)
RNA 1: B1 RNA 1
RNA 2: B1 RNA 2 with C27U, U29A, A52U, A53U, C54G
B14: target 1 MT 5'PFS ACG 3'PFS CUG (mixed)
RNA 1: B1 RNA 1
RNA 2: B1 RNA 2 with C27A, U29G, A52C, A53U, C54G
B15: target 1 MT 5'PFS CCU 3'PFS AAA (mixed)
RNA 1: B1 RNA 1
RNA 2: B1 RNA 2 with C54A
B16: target 1 MT 5'PFS GGA 3'PFS AGC (mixed)
RNA 1: B1 RNA 1
RNA 2: B1 RNA 2 with C27G, C28G, U29A, A53G
B17: target 1 MT 5'PFS GAA 3'PFS UGU (mixed)
RNA 1: B1 RNA 1
RNA 2: B1 RNA 2 with C27G, C28A, U29A, A52U, A53G, C54U
B18: target 1 MT 5'PFS UAC 3'PFS UCU (mixed)
RNA 1: B1 RNA 1
RNA 2: B1 RNA 2 with C27U, C28A, U29C, A52U, A53C, C54U
B19: target 1 insC 3' of 20,insC 3' of 18 (mixed)
RNA 1: B1 RNA 1
RNA 2: GGGAAUGGAUCCACAUCUACGAAUUCGUACCACUACGAGAGGUUAUCCGCUCACCGAGAUCGGAAGAGCACACGU
B20: target 1 C4A (mixed)
RNA 1: B1 RNA 1
RNA 2: B1 RNA 2 with C27G, C28U, U29A, C48A, A52C, A53C, C54G
B21: target 1 MT 5'PFS UCA 3'PFS UUA (mixed)
RNA 1: B1 RNA 1
RNA 2: B1 RNA 2 with C27U, U29A, A52U, A53U, C54A
B22: target 1 MT 5'PFS GAA 3'PFS UGC (mixed)
RNA 1: B1 RNA 1
RNA 2: B1 RNA 2 with C27G, C28A, U29A, A52U, A53G
B23: target 1 MT 5'PFS GCG 3'PFS UGA (mixed)
RNA 1: B1 RNA 1
RNA 2: B1 RNA 2 with C27G, U29G, A52U, A53G, C54A
B24: target 1 MT 5'PFS CUC 3'PFS CGA (mixed)
RNA 1: B1 RNA 1
RNA 2: B1 RNA 2 with C28U, U29C, A52C, A53G, C54A
B25: target 1 MT 5'PFS GAA 3'PFS UGA (mixed)
RNA 1: B1 RNA 1
RNA 2: B1 RNA 2 with C27G, C28A, U29A, A52U, A53G, C54A
B26: target 1 MT 5'PFS ACG 3'PFS CUA (mixed)
RNA 1: B1 RNA 1
RNA 2: B1 RNA 2 with C27A, U29G, A52C, A53U, C54A
B27: target 1 MT 5'PFS GUG 3'PFS CUU (mixed)
RNA 1: B1 RNA 1
RNA 2: B1 RNA 2 with C27G, C28U, U29G, A52C, A53U, C54U
B28: target 1 MT 5'PFS GGA 3'PFS AGU (mixed)
RNA 1: B1 RNA 1
RNA 2: B1 RNA 2 with C27G, C28G, U29A, A53G, C54U
B29: target 1 MT 5'PFS CUG 3'PFS UAC (mixed)
RNA 1: B1 RNA 1
RNA 2: B1 RNA 2 with C28U, U29G, A52U
B30: target 1 MT 5'PFS GUG 3'PFS CUC (mixed)
RNA 1: B1 RNA 1
RNA 2: B1 RNA 2 with C27G, C28U, U29G, A52C, A53U
B31: target 1 MT 5'PFS AAU 3'PFS AAC (mixed)
RNA 1: B1 RNA 1
RNA 2: B1 RNA 2 with C27A, C28A
B32: target 1 MT 5'PFS GGC 3'PFS UUA (mixed)
RNA 1: B1 RNA 1
RNA 2: B1 RNA 2 with C27G, C28G, U29C, A52U, A53U, C54A
B33: target 1 MT 5'PFS ACU 3'PFS AUU (mixed)
RNA 1: B1 RNA 1
RNA 2: B1 RNA 2 with C27A, A53U, C54U
B34: target 1 MT 5'PFS GGA 3'PFS GGG (mixed)
RNA 1: B1 RNA 1
RNA 2: B1 RNA 2 with C27G, C28G, U29A, A52G, A53G, C54G
B35: target 1 MT 5'PFS GAA 3'PFS AAU (mixed)
RNA 1: B1 RNA 1
RNA 2: B1 RNA 2 with C27G, C28A, U29A, C54U
B36: target 1 MT 5'PFS UAG 3'PFS CGG (mixed)
RNA 1: B1 RNA 1
RNA 2: B1 RNA 2 with C27U, C28A, U29G, A52C, A53G, C54G
B37: target 1 MT 5'PFS GGA 3'PFS GGU (mixed)
RNA 1: B1 RNA 1
RNA 2: B1 RNA 2 with C27G, C28G, U29A, A52G, A53G, C54U
B38: target 1 MT 5'PFS GUG 3'PFS CUA (mixed)
RNA 1: B1 RNA 1
RNA 2: B1 RNA 2 with C27G, C28U, U29G, A52C, A53U, C54A
B39: target 1 MT 5'PFS GCG 3'PFS UGC (mixed)
RNA 1: B1 RNA 1
RNA 2: B1 RNA 2 with C27G, U29G, A52U, A53G
B40: target 1 MT 5'PFS ACU 3'PFS AUA (mixed)
RNA 1: B1 RNA 1
RNA 2: B1 RNA 2 with C27A, A53U, C54A

Target: T1, EsCas13d, nuclease-dead
Test: crRNA (strand 1, pre-loaded); Mg2+; 40 mM Tris-HCl pH 7.5, 150 mM NaCl, 6 mM MgCl2, 1 mM DTT, 0.1% Tween-20, 0.2 mg/ml BSA; 25 C; 10 min per concentration, then washed
Settings: tags: His6-TwinStrep-SUMO cleaved; N-terminal SNAP kept (SNAP-Surface 488); label: 3' end held by stalled T7 RNA polymerase

Row | Binder | Kd [nM]
1 | B1 | 18 ± 4.5
2 | B2 | ~50
3 | B3 | 27 ± 6
4 | B4 | 12.9 ± 2.4
5 | B5 | 6.6 ± 0.4
6 | B6 | 28.9 ± 2
7 | B7 | 60.5 ± 22.5
8 | B8 | 38 ± 14
9 | B9 | 57 ± 22
10 | B10 | 63.5 ± 28
11 | B11 | ~47
12 | B12 | 38 ± 17
13 | B13 | 37 ± 9.5
14 | B14 | 53.5 ± 23
15 | B15 | 59.5 ± 20
16 | B16 | 15.6 ± 2.9
17 | B17 | 56.5 ± 14.5
18 | B18 | 9.9 ± 3.2
19 | B19 | 6.1 ± 0.5
20 | B20 | 3.8 ± 0.4

Row | Binder | Kd [nM]
21 | B21 | 10.8 ± 2.25
22 | B22 | 10.8 ± 2.05
23 | B23 | 20.8 ± 7.75
24 | B24 | 80 ± 40
25 | B25 | 30.5 ± 9
26 | B26 | ~32
27 | B27 | 10.2 ± 0.9
28 | B28 | 22 ± 3.7
29 | B29 | 4.1 ± 0.7
30 | B30 | 19.4 ± 2.75
31 | B31 | 47.5 ± 18.5
32 | B32 | 11.7 ± 2.55
33 | B33 | 53 ± 26
34 | B34 | 54 ± 18
35 | B35 | 40.5 ± 13
36 | B36 | 55 ± 10
37 | B37 | 45 ± 18
38 | B38 | 16.2 ± 2
39 | B39 | 22.5 ± 6.5
40 | B40 | 67 ± 18

— PMC10786891, “Massively parallel profiling of RNA-targeting CRISPR-Cas13d”
